Here are results for six molecules from patent US20170107293A1 (BIOINVENT INTERNATIONAL, published 2017).

Changes are numbered by the printed parent chain.

This experiment has as its target T1, human FcγRIIA on cells (human, UniProt P12318 34-317).
T1 construct: whole, on cells; also called hFcγRIIA; FcγRIIA^+ve CHO
T1 sequence (looked up): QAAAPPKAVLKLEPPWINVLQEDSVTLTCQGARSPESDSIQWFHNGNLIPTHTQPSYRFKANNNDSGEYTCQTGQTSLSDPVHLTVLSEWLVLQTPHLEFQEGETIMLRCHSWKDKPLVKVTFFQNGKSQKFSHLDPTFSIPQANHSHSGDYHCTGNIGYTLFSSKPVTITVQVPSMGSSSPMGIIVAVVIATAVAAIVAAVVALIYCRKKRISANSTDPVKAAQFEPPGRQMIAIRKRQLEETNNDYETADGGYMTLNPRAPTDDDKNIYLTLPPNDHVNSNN
Description: binding to FcγRIIA-transfected CHO-k1 cells.

B1: 6G03 (antibody, human IgG1, V domains shown)
VH: EVQLLESGGGLVQPGGSLRLSCAASGFTFGSYGMHWVRQAPGKGLEWVSGISWDSAIIDYAGSVKGRFTISRDNSKNTLYLQMNSLRAEDTAVYYCAKDEAAAGAFDIWGQGTLVTVSS
VL: QSVLTQPPSASGTPGQRVTISCTGSSSNIGAGYDVHWYQQLPGTAPKLLIYGNTDRPSGVPDRFSGSKSGTSASLAISGLRSEDEADYYCAAWDDSLSGPVVFGGGTKLTVLG
notes: hFcγRIIB mAb, human IgG1 (WT); Only VH/VL tied to the clone; also called Antibody clone: 6G03
For the molecule B1, the binding result is reported as “no binding”.

B2: 5E12 (antibody, human IgG1, V domains shown)
VH: EVQLLESGGGLVQPGGSLRLSCAASGFTFSSYGMHWVRQAPGKGLEWVAVISYDGINKDYADSMKGRFTISRDNSKNTLYLQMNSLRAEDTAVYYCARERKDAFDIWGQGTLVTVSS
VL: QSVLTQPPSASGTPGQRVTISCTGSSSNIGAGYDVHWYQQLPGTAPKLLIYSNNQRPSGVPDRFSGSKSGTSASLAISGLRSEDEADYYCATWDDSLNGLVFGGGTKLTVLG
notes: hFcγRIIB mAb, human IgG1 (WT); Only VH/VL tied to the clone; also called Antibody clone: 5E12
For the molecule B2, the binding result was “no binding”.

B3: 6H08 (antibody, human IgG1, V domains shown)
VH: B2 VH with S30N, S31N, I56S, D59Y, M64V, R72K, R100Y
VL: QSVLTQPPSASGTPGQRVTISCTGSSSNIGSNTVNWYQQLPGTAPKLLIYDNNKRPSGVPDRFSGSKSGTSASLAISGLRSEDEADYYCQAWGTGIRVFGGGTKLTVLG
notes: hFcγRIIB mAb, human IgG1 (WT); Only VH/VL tied to the clone; also called Antibody clone: 6H08
For the molecule B3, the binding result is “no binding”.

B4: 4B02 (antibody, human IgG1, V domains shown)
VH: B2 VH with S31N, Y32H, I56T, D59Y, M64V, K65R, R100T, K101W, I106V
VL: B3 VL with T23S, T33N, V34A, G93D, T94S, G95S, I96T, R97V
notes: hFcγRIIB mAb, human IgG1 (WT); Only VH/VL tied to the clone; also called Antibody clone: 4B02
In the case of B4, the binding result is “no binding”.

B5: 6C12 (antibody, human IgG1, V domains shown)
VH: B2 VH with I56S, D59Y, M64V, K101R
VL: QSVLTQPPSASGTPGQRVTISCTGSSSNIGAGYDVHWYQQLPGTAPKLLIYSDNQRPSGVPDRFSGSKSGTSASLAISGLRSEDEADYYCATWDSDTPVFGGGTKLTVLG
notes: hFcγRIIB mAb, human IgG1 (WT); Only VH/VL tied to the clone; also called Antibody clone: 6C12
Consider B5, for which the binding result was “no binding”.

B6: 6C11 (antibody, human IgG1, V domains shown)
VH: EVQLLESGGGLVQPGGSLRLSCAASGFTFDDYGMSWVRQAPGKGLEWVSAISGSGSSTYYADSVKGRFTISRDNSKNTLYLQMNSLRAEDTAVYYCAGGDIDYFDYWGQGTLVTVSS
VL: B2 VL with I29F, S52E, Q55K, T92A, L100P
notes: hFcγRIIB mAb, human IgG1 (WT); Only VH/VL tied to the clone; also called Antibody clone: 6C11
As to B6, the binding result is given as “no binding”.
